In test [1] the target is T1, PRAME (PRAME-004) peptide on HLA-A*02:01 (human).
T1 peptide: SLLQHLIGL
The experiment in a line: IFN-gamma release; RNA-electroporated CD8+ T cells; T2 cells loaded with 10 µM to 10 pM peptide (FIG. 18); full-length, on cells.

In test [2] the target is T1, PRAME (PRAME-004) peptide on HLA-A*02:01. The experiment in a line: multimer staining.
Test [3] shares this target. The experiment in a line: IFN-gamma release; RNA-electroporated CD8+ T cells; T2 cells loaded with 10 µM to 10 pM peptide (FIG. 17); full-length, on cells.

The source of these data is patent publication US20200123221A1 (published 2020).

B1: R17P1D7 (TCR, V domains shown)
Valpha: AQTVTQSQPEMSVQEAETVTLSCTYDTSESDYYLFWYKQPPSRQMILVIRQEAYKQQNATENRFSVNFQKAAKSFSLKISDSQLGDAAMYFCAYRWAQGGSEKLVFGKGTKLTVNP
Vbeta: EADIYQTPRYLVIGTGKKITLECSQTMGHDKMYWYQQDPGMELHLIHYSYGVNSTEKGDLSSESTVSRIRTEHFPLTLESARPSHTSQYLCATELWSSGGTGELFFGEGSRLTVL
In turn, B1 yielded an EC50 of peptide in test [1] of 1.83 nM.

B2: R17P1A9 (TCR, V domains shown)
Valpha: QKEVEQNSGPLSVPEGAIASLNCTYSDRGSQSFFWYRQYSGKSPELIMSIYSNGDKEDGRFTAQLNKASQYVSLLIRDSQPSDSATYLCAVLNQAGTALIFGKGTTLSVSS
Vbeta: DSGVTQTPKHLITATGQRVTLRCSPRSGDLSVYWYQQSLDQGLQFLIQYYNGEERAKGNILERFSAQQFPDLHSELNLSSLELGDSALYFCASSAETGPWLGNEQFFGPGTRLTVL
As for B2, the binding result in test [2] is “recognises”.

B3: R16P1E8 (TCR, V domains shown)
Valpha: QKEVEQDPGPLSVPEGAIVSLNCTYSNSAFQYFMWYRQYSRKGPELLMYTYSSGNKEDGRFTAQVDKSSKYISLFIRDSQPSDSATYLCAMSEAAGNKLTFGGGTRVLVKP
Vbeta: EAGVAQSPRYKIIEKRQSVAFWCNPISGHATLYWYQQILGQGPKLLIQFQNNGVVDDSQLPKDRFSAERLKGVDSTLKIQPAKLEDSAVYLCASSYTNQGEAFFGQGTRLTVV
B3: the EC50 of peptide in test [3] was approximately 1000 nM.
